Source: patent publication US20060057623A1

Biological target: p300 (UniProt Q09472)
Experiment: cell-based or functional assay

p300, sequence (Q09472 2-2414 limits assumed): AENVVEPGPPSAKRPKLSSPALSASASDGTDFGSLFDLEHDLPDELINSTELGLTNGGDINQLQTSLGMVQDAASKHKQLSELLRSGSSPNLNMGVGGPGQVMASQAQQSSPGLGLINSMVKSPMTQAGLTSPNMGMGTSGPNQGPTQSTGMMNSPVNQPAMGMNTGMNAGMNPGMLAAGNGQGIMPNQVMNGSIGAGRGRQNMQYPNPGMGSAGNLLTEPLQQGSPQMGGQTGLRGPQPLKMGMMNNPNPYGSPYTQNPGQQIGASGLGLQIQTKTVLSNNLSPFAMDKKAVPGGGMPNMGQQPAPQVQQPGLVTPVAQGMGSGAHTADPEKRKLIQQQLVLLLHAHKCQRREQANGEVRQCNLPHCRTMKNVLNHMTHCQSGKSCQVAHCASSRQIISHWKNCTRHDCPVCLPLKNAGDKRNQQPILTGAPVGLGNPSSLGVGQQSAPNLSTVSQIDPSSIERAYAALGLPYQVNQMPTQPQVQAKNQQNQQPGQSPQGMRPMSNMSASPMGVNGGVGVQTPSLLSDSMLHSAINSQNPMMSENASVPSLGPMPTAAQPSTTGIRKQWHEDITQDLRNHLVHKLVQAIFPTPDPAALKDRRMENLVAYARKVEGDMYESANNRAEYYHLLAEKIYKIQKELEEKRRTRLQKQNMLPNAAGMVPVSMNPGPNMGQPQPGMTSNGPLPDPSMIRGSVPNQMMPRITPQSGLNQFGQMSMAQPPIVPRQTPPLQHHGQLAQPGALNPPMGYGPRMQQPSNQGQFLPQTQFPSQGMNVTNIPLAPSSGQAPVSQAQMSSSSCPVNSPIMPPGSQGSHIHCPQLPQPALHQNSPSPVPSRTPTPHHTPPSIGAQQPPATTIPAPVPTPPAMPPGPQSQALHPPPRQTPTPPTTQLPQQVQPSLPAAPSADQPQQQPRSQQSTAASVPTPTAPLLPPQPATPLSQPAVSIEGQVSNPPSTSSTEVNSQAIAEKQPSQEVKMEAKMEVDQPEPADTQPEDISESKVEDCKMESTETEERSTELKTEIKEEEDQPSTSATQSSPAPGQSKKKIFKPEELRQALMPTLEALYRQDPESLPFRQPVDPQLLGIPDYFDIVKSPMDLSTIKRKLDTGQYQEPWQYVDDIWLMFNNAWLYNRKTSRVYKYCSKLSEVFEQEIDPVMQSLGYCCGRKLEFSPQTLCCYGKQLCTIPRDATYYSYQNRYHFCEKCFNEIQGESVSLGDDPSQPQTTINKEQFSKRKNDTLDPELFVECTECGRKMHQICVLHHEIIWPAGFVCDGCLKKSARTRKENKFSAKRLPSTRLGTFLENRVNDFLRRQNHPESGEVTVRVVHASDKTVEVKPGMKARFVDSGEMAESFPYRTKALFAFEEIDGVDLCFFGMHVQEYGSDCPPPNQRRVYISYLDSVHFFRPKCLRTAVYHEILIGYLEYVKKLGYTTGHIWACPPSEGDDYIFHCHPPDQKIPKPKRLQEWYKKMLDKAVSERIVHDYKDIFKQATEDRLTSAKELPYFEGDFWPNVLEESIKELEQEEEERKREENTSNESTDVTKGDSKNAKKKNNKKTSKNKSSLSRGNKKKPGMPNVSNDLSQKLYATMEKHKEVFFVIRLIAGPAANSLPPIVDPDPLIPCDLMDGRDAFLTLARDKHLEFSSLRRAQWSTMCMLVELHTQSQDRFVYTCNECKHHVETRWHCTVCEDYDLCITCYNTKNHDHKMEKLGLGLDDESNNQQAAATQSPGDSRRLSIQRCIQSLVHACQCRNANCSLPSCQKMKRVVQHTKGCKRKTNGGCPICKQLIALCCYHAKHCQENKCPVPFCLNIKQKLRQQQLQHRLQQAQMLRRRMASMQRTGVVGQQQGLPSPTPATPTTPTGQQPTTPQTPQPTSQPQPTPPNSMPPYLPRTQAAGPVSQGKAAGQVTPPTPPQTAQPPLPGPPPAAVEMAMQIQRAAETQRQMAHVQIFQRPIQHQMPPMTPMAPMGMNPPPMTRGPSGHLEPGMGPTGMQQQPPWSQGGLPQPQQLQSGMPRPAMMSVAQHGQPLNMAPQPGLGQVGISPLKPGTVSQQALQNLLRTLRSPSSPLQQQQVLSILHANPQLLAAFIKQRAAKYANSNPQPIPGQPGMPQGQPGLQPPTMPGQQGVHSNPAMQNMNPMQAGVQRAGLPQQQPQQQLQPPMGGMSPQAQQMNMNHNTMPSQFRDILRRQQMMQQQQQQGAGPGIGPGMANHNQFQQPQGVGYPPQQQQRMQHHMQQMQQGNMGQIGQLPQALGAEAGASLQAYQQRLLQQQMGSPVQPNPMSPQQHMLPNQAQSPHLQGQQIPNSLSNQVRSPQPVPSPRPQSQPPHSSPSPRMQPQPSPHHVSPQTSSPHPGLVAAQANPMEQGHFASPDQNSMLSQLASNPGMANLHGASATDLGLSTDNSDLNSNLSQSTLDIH

For “E1AΔ2-36, a p300 binding-defective mutant”, which cyclin D1 promoter CD1 (-1745/+134) luciferase activity with SENP1 (PC-3 cells) is on record?
The cyclin D1 promoter CD1 (-1745/+134) luciferase activity with SENP1 (PC-3 cells) was 38%.
